Laboratory results reported in patent US20250074996A1.

Biological target: CD3E on the surface of Jurkat-NFAT-Luc cells (UniProt P07766)
Experiment: cell-based or functional assay

CD3E on the surface of Jurkat-NFAT-Luc cells, sequence (P07766 23-207): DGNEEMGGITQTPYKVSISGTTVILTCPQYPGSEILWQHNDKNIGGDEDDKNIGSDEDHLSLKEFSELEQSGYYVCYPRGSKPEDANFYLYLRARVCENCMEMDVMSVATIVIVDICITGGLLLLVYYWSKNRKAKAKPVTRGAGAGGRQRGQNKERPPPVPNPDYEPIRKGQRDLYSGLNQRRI

- EC50 of Jurkat-NFAT-Luc luciferase activation; tumor cells 8226: 5.39 pM
- EC50 of Jurkat-NFAT-Luc luciferase activation; tumor cells ARD: 2.04 pM
- EC50 of Jurkat-NFAT-Luc luciferase activation; tumor cells H929: 2.72 pM
- EC50 of Jurkat-NFAT-Luc luciferase activation; tumor cells L363: 2.79 pM
- EC50 of Jurkat-NFAT-Luc luciferase activation; tumor cells MM.1S: 1.98 pM
- EC50 of Jurkat-NFAT-Luc luciferase activation; tumor cells U266: 4.09 pM
B1: hz11B7.5/SP34.24 (bispecific antibody, V domains shown)
VH 1: QVQLVQSGAEVKKPGSSVKVSCKASGYTFTTYTMHWVRQAPGQGLEWIGFIIPSSGYTSYNQNFKDKVTLTADKSTSTAYMELSSLRSEDTAVYFCTGGQARAYYPLDYWGQGTLVTVSS
VL 1: EIVMTQSPATLSVSPGERATLSCRASQSIGTTIHWYQQKPGQAPRLLIKYASESISGIPSRFSGSGSGTEFTLTISSLQSEDFAVYYCQQSYNWPRTFGGGTKVEIK
VH 2: EVQLVESGGGLVQPGGSLKLSCAASGFTFNTYAMNWVRQASGKGLEWVGRIRSKYNNYATYYADSVKDRFTISRDDSKSTLYLQMNSLKTEDTAVYYCARHGNFGQSYVSWFAYWGQGTTVTVSS
VL 2: QAVVTQEPSLTVSPGGTVTLTCRSSTGAVTTSNYANWVQQKPGQAPRGLIGGTNKRAPGVPARFSGSLLGDKAALTLLGAQPEDEAEYYCALWYSNLWVFGQGTKLTVL
